In article PMC6821831, “Colorimetric Assay Reports on Acyl Carrier Protein Interactions” (Scientific Reports, 2019):
Each block holds one binder with its values, some of them ahead of it.

B4: FabF (E. coli ketoacyl synthase) (enzyme, UniProt P0AAI5 1-413, looked up)
chain: MSKRRVVVTGLGMLSPVGNTVESTWKALLAGQSGISLIDHFDTSAYATKFAGLVKDFNCEDIISRKEQRKMDAFIQYGIVAGVQAMQDSGLEITEENATRIGAAIGSGIGGLGLIEENHTSLMNGGPRKISPFFVPSTIVNMVAGHLTIMYGLRGPSISIATACTSGVHNIGHAARIIAYGDADVMVAGGAEKASTPLGVGGFGAARALSTRNDNPQAASRPWDKERDGFVLGDGAGMLVLEEYEHAKKRGAKIYAELVGFGMSSDAYHMTSPPENGAGAALAMANALRDAGIEASQIGYVNAHGTSTPAGDKAEAQAVKTIFGEAASRVLVSSTKSMTGHLLGAAGAVESIYSILALRDQAVPPTINLDNPDEGCDLDFVPHEARQVSGMEYTLCNSFGFGGTNGSLIFKKI
notes: E. coli ketoacyl synthase FabF; Sediments mostly as a dimer in SV-AUC; also called KS; E. coli KS FabF; source: E. coli BL21, purified (Ni-NTA)

Key:
[1] = target: T1, holo-AcpP (E. coli FAS acyl carrier protein, 4'-phosphopantetheine arm installed) (E. coli), P0A6A8; experiment: AUC; sedimentation velocity of each protein alone; FabF 10-36 uM, holo-AcpP 345-488 uM, holo-ACT ACP (wild type) 98-196 uM; 20 mM Tris-HCl pH 8.0, 150 mM NaCl, 1 mM DTT, 20 C; settings: remark: other sources report otherwise
T1 chain: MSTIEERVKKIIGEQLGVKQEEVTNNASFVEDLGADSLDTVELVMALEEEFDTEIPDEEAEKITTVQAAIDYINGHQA

[2] = target: B4; experiment: colorimetric read-out of the cross-linking (TNB2− release, A412); ACP-TNB− mixed with FabF at ACP-TNB:FabF molar ratios 0.2:1 to 3:1; 50 mM sodium phosphate pH 7.6, 20 min, room temperature; A412 of the reaction mixture; settings: both partners purified
[3] = target: B4; experiment: AUC; sedimentation velocity titration; FabF constant at 16 uM, AcpP 0-230 uM or ACT ACP 0-250 uM; 20 mM Tris-HCl pH 8.0, 150 mM NaCl, 1 mM DTT, 20 C; s(w) and EPT s(w) fast isotherms fitted globally to A + B <-> AB; settings: both partners purified
[4] = target: the molecule itself; experiment: AUC; sedimentation velocity of each protein alone; FabF 10-36 uM, holo-AcpP 345-488 uM, holo-ACT ACP (wild type) 98-196 uM; 20 mM Tris-HCl pH 8.0, 150 mM NaCl, 1 mM DTT, 20 C

B2: AcpP-TNB− (E. coli AcpP with the Ppant thiol as mixed disulfide with 2-nitro-5-thiobenzoate) (natural protein, UniProt P0A6A8 1-78, looked up)
chain: MSTIEERVKKIIGEQLGVKQEEVTNNASFVEDLGADSLDTVELVMALEEEFDTEIPDEEAEKITTVQAAIDYINGHQA
modifications: 4'-phosphopantetheine arm on the conserved serine; its terminal thiol is a mixed disulfide with 2-nitro-5-thiobenzoate (TNB−)
notes: E. coli fatty acid synthase acyl carrier protein AcpP, UniProt P0A6A8; also called ACP-TNB−; AcpP-TNB− adduct; source: E. coli BAP1, purified (Ni-NTA), converted to holo form with Sfp R4-4, treated with DTNB, desalted (PD-10)
stoichiometry N [2]: 1

Binder: B4
stoichiometry N [4]: 2

More lines, now with the values ahead:

stoichiometry N [1]: 4
B1: holo-AcpP (E. coli FAS acyl carrier protein, 4'-phosphopantetheine arm installed), P0A6A8 1-78 (natural protein)
chain: MSTIEERVKKIIGEQLGVKQEEVTNNASFVEDLGADSLDTVELVMALEEEFDTEIPDEEAEKITTVQAAIDYINGHQA
modifications: here or on the partner: 4'-phosphopantetheine (Ppant) arm on the conserved serine at the N-terminus of helix II (holo form); 4'-phosphopantetheine (Ppant) arm on the conserved serine at the N-terminus of helix II (holo form)

Kd [3]: 6.4 ± 2 µM
B3: holo-AcpP (E. coli FAS acyl carrier protein, 4'-phosphopantetheine arm installed) (natural protein, UniProt P0A6A8 1-78, looked up)
chain: MSTIEERVKKIIGEQLGVKQEEVTNNASFVEDLGADSLDTVELVMALEEEFDTEIPDEEAEKITTVQAAIDYINGHQA
modifications: 4'-phosphopantetheine (Ppant) arm on the conserved serine at the N-terminus of helix II (holo form)
notes: E. coli fatty acid synthase acyl carrier protein AcpP, UniProt P0A6A8; N- and C-terminal His6, from pKJ5535 or pTL14; AUC section gives 12.3 kDa for AcpP; also called E. coli ACP; source: E. coli BAP1, purified (Ni-NTA); converted to holo form on resin with Sfp R4-4 and coenzyme A
